The results in this text go back to patent US20210388087A1 (Chugai, published 2021).

Where a chain is given by its changes, count along the chain named. In names and notes the source's numbering stands.

T1: Human CD3eg linker (human)
T1 construct: single-chain construct; also called recombinant human CD3
T1 chain: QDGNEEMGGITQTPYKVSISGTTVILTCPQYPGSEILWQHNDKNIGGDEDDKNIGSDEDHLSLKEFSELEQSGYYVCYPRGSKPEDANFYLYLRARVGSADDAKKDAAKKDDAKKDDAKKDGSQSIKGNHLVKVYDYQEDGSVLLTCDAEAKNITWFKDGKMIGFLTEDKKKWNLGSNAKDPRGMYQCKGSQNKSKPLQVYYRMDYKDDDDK

B1: dBBDu183H P61N/dBBDu072L (antibody, name in Kabat numbering, V domains shown)
VH: QVQLVESGGGLVQPGRSLRLSCAASGFTFSNAWMHWVRQAPGKGLEWVAQIKDKGNAYAAYYANSVKGRFTISRDDSKNSIYLQMNSLKTEDTAVYYCHYVHYASASTVLPAFGVDAWGQGTTVTVSS
VL: DIVMTQSPLSLPVTPGEPASISCQASQELVHMNRNTYLHWYQQKPGQAPRLLIYKVSNRFPGVPDRFSGSGSGTDFTLKISRVEAEDVGVYYCAQGTSVPFTFGQGTKLEIK
B2: dBBDu183H S99G/dBBDu072L (antibody, name in Kabat numbering, V domains shown)
VH: B1 VH with N64P, S105G
VL: B1 VL
B3: dBBDu183H S62D/dBBDu072L (antibody, name in Kabat numbering, V domains shown)
VH: B1 VH with N64P, S65D
VL: B1 VL
B4: dBBDu183H P100eQ/dBBDu072L (antibody, name in Kabat numbering, V domains shown)
VH: B1 VH with N64P, P111Q
VL: B1 VL
B5: dBBDu183H S99D/dBBDu072L (antibody, name in Kabat numbering, V domains shown)
VH: B1 VH with N64P, S105D
VL: B1 VL
B6: dBBDu183H S62V/dBBDu072L (antibody, name in Kabat numbering, V domains shown)
VH: B1 VH with N64P, S65V
VL: B1 VL
B7: dBBDu183H P100eF/dBBDu072L (antibody, name in Kabat numbering, V domains shown)
VH: B1 VH with N64P, P111F
VL: B1 VL
B8: dBBDu183H P100eY/dBBDu072L (antibody, name in Kabat numbering, V domains shown)
VH: B1 VH with N64P, P111Y
VL: B1 VL
B9: dBBDu183H P100eS/dBBDu072L (antibody, name in Kabat numbering, V domains shown)
VH: B1 VH with N64P, P111S
VL: B1 VL
B10: dBBDu183H P100eG/dBBDu072L (antibody, name in Kabat numbering, V domains shown)
VH: B1 VH with N64P, P111G
VL: B1 VL
B11: dBBDu183H P100eN/dBBDu072L (antibody, name in Kabat numbering, V domains shown)
VH: B1 VH with N64P, P111N
VL: B1 VL
B12: dBBDu183H P61T/dBBDu072L (antibody, name in Kabat numbering, V domains shown)
VH: B1 VH with N64T
VL: B1 VL
B13: dBBDu183H S62H/dBBDu072L (antibody, name in Kabat numbering, V domains shown)
VH: B1 VH with N64P, S65H
VL: B1 VL
B14: dBBDu183H P61S/dBBDu072L (antibody, name in Kabat numbering, V domains shown)
VH: B1 VH with N64S
VL: B1 VL
B15: dBBDu183H P100eW/dBBDu072L (antibody, name in Kabat numbering, V domains shown)
VH: B1 VH with N64P, P111W
VL: B1 VL
B16: dBBDu183H P100eH/dBBDu072L (antibody, name in Kabat numbering, V domains shown)
VH: B1 VH with N64P, P111H
VL: B1 VL
B17: dBBDu183H S99N/dBBDu072L (antibody, name in Kabat numbering, V domains shown)
VH: B1 VH with N64P, S105N
VL: B1 VL
B18: dBBDu183H P100eV/dBBDu072L (antibody, name in Kabat numbering, V domains shown)
VH: B1 VH with N64P, P111V
VL: B1 VL
B19: dBBDu183H S99K/dBBDu072L (antibody, name in Kabat numbering, V domains shown)
VH: B1 VH with N64P, S105K
VL: B1 VL
B20: dBBDu183H P100eE/dBBDu072L (antibody, name in Kabat numbering, V domains shown)
VH: B1 VH with N64P, P111E
VL: B1 VL
B21: dBBDu183H S62Y/dBBDu072L (antibody, name in Kabat numbering, V domains shown)
VH: B1 VH with N64P, S65Y
VL: B1 VL
B22: dBBDu183H P61W/dBBDu072L (antibody, name in Kabat numbering, V domains shown)
VH: B1 VH with N64W
VL: B1 VL
B23: dBBDu183H S62N/dBBDu072L (antibody, name in Kabat numbering, V domains shown)
VH: B1 VH with N64P, S65N
VL: B1 VL
B24: dBBDu183H S99Q/dBBDu072L (antibody, name in Kabat numbering, V domains shown)
VH: B1 VH with N64P, S105Q
VL: B1 VL
B25: dBBDu183H S62F/dBBDu072L (antibody, name in Kabat numbering, V domains shown)
VH: B1 VH with N64P, S65F
VL: B1 VL
B26: dBBDu183H P100eT/dBBDu072L (antibody, name in Kabat numbering, V domains shown)
VH: B1 VH with N64P, P111T
VL: B1 VL
B27: dBBDu183H S99F/dBBDu072L (antibody, name in Kabat numbering, V domains shown)
VH: B1 VH with N64P, S105F
VL: B1 VL
B28: dBBDu183H S62K/dBBDu072L (antibody, name in Kabat numbering, V domains shown)
VH: B1 VH with N64P, S65K
VL: B1 VL
B29: dBBDu183H S62W/dBBDu072L (antibody, name in Kabat numbering, V domains shown)
VH: B1 VH with N64P, S65W
VL: B1 VL
B30: dBBDu183H S99H/dBBDu072L (antibody, name in Kabat numbering, V domains shown)
VH: B1 VH with N64P, S105H
VL: B1 VL
B31: dBBDu183H S62E/dBBDu072L (antibody, name in Kabat numbering, V domains shown)
VH: B1 VH with N64P, S65E
VL: B1 VL
B32: dBBDu183H P61Q/dBBDu072L (antibody, name in Kabat numbering, V domains shown)
VH: B1 VH with N64Q
VL: B1 VL
B33: dBBDu183H S99E/dBBDu072L (antibody, name in Kabat numbering, V domains shown)
VH: B1 VH with N64P, S105E
VL: B1 VL
B34: dBBDu183H P100eK/dBBDu072L (antibody, name in Kabat numbering, V domains shown)
VH: B1 VH with N64P, P111K
VL: B1 VL
B35: dBBDu183H S62Q/dBBDu072L (antibody, name in Kabat numbering, V domains shown)
VH: B1 VH with N64P, S65Q
VL: B1 VL
B36: dBBDu183H S62R/dBBDu072L (antibody, name in Kabat numbering, V domains shown)
VH: B1 VH with N64P, S65R
VL: B1 VL
B37: dBBDu183H P100eD/dBBDu072L (antibody, name in Kabat numbering, V domains shown)
VH: B1 VH with N64P, P111D
VL: B1 VL
B38: dBBDu183H S62G/dBBDu072L (antibody, name in Kabat numbering, V domains shown)
VH: B1 VH with N64P, S65G
VL: B1 VL
B39: dBBDu183H S62T/dBBDu072L (antibody, name in Kabat numbering, V domains shown)
VH: B1 VH with N64P, S65T
VL: B1 VL
B40: dBBDu183H P61R/dBBDu072L (antibody, name in Kabat numbering, V domains shown)
VH: B1 VH with N64R
VL: B1 VL
B41: dBBDu183H P100eR/dBBDu072L (antibody, name in Kabat numbering, V domains shown)
VH: B1 VH with N64P, P111R
VL: B1 VL
B42: dBBDu183H P61Y/dBBDu072L (antibody, name in Kabat numbering, V domains shown)
VH: B1 VH with N64Y
VL: B1 VL

For the test, the target named is T1, Human CD3eg linker. Briefly: SPR, vs unmutated H183/L072.
Regarding B1, the “fold change of affinity” value stood at 1.5 fold. The result for B2 reads 1 fold; that for B3, 1.2 fold; that for B4, 1.5 fold. The result for B5 reads 0.3 fold. The result for B6 reads 1.4 fold; that for B7, 1.9 fold; that for B8, 2 fold. Turning to B9, the “fold change of affinity” value was determined as 1.2 fold. Then B10, with 1.6 fold; and B11, with 1.3 fold; and B12, with 1 fold. The result for B13 reads 1.3 fold; that for B14, 1.3 fold. Then B15, with 1.7 fold. As to B16, the “fold change of affinity” value was 1.5 fold.

For B17, the “fold change of affinity” value was found to be 0.6 fold. With B18, the “fold change of affinity” value turned out to be 1.5 fold. With B19, the “fold change of affinity” value came to 1.8 fold. The result for B20 reads 1 fold. As to B21, the “fold change of affinity” value stood at 1.5 fold. Then B22, with 1.8 fold. Then B23, with 1.4 fold. The result for B24 reads 1 fold; that for B25, 1.9 fold.

With B26, the “fold change of affinity” value came out at 1.4 fold. The result for B27 reads 1 fold. The result for B28 reads 1.4 fold; that for B29, 2 fold.

As for B30, the “fold change of affinity” value was found to be 0.7 fold. The result for B31 reads 1.2 fold. The result for B32 reads 1.8 fold; that for B33, 0.3 fold. On to B34, for which the “fold change of affinity” value is 2.1 fold. On to B35, for which the “fold change of affinity” value was 1.3 fold. The result for B36 reads 1.5 fold; that for B37, 0.7 fold; that for B38, 1.4 fold. Then B39, with 1.3 fold; and B40, with 1.6 fold. Then B41, with 2.2 fold. With B42, the “fold change of affinity” value is 1.9 fold.
